Measured values reported in publication PMC11969672 (Nucleic Acids Research, 2025).

T1: L3MBTL3–SAM (residues 705–773) (UniProt Q96JM7 705-773)
T1 sequence (looked up): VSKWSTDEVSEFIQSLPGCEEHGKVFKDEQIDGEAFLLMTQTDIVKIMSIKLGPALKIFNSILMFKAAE


Experiments:
negative-staining EM = target: the molecule itself; test: negative-staining EM
[1] = target: T1, L3MBTL3–SAM (residues 705–773); test: SEC

| binding result [1] | Binder | binding result (negative-staining EM) |
| --- | --- | --- |
| – | wild-type full-length SAMD1 (natural protein, human, UniProt Q6SPF0 1-538, looked up) MAGPPALPPPETAAAATTAAAASSSAASPHYQEWILDTIDSLRSRKARPDLERICRMVRRRHGPEPERTRAELEKLIQQRAVLRVSYKGSISYRNAARVQPPRRGATPPAPPRAPRGAPAAAAAAAPPPTPAPPPPPAPVAAAAPARAPRAAAAAATAPPSPGPAQPGPRAQRAAPLAAPPPAPAAPPAVAPPAGPRRAPPPAVAAREPPLPPPPQPPAPPQQQQPPPPQPQPPPEGGAVRAGGAARPVSLREVVRYLGGSGGAGGRLTRGRVQGLLEEEAAARGRLERTRLGALALPRGDRPGRAPPAASARPSRSKRGGEERVLEKEEEEDDDEDEDEEDDVSEGSEVPESDRPAGAQHHQLNGERGPQSAKERVKEWTPCGPHQGQDEGRGPAPGSGTRQVFSMAAMNKEGGTASVATGPDSPSPVPLPPGKPALPGADGTPFGCPPGRKEKPSDPVEWTVMDVVEYFTEAGFPEQATAFQEQEIDGKSLLLMQRTDVLTGLSIRLGPALKIYEHHIKVLQQGHFEDDDPDGFLG | binds |
| binds | SAMD1–SAM (residues 459–523 with L495R mutation) (domain or fragment, human, UniProt Q6SPF0 459-523, looked up) PVEWTVMDVVEYFTEAGFPEQATAFQEQEIDGKSLLRMQRTDVLTGLSIRLGPALKIYEHHIKVL | – |
